# Experimental data as given in FireProtDB (doi:10.1002/pro.398).
# Conditions: Gallus gallus, Thermal, CD, whole UniProt chain shown
protein,measurement,setting,value
"Ovalbumin wild type, P01012 (protein) MGSIGAASMEFCFDVFKELKVHHANENIFYCPIAIMSALAMVYLGAKDSTRTQINKVVRFDKLPGFGDSIEAQCGTSVNVHSSLRDILNQITKPNDVYSFSLASRLYAEERYPILPEYLQCVKELYRGGLEPINFQTAADQARELINSWVESQTNGIIRNVLQPSSVDSQTAMVLVNAIVFKGLWEKAFKDEDTQAMPFRVTEQESKPVQMMYQIGLFRVASMASEKMKILELPFASGTMSMLVLLPDEVSGLEQLESIINFEKLTEWTSSNVMEERKIKVYLPRMKMEEKYNLTSVLMAMGITDVFSSSANLSGISSAESLKISQAVHAAHAEINEAGREVVGSAEAGVDAASVSEEFRADHPFLFCIKHIATNAVLFFGRCVSP",Tm,"pH 7, Phosphate 10 mM",69.8 °C
same,Tm,"pH 10, Glycine-NaOH 0.1 M",78.9 °C
